{"source": "paper PMC9156947", "key": {"N8-HBx": {"target": "N8-HBx (UniProt P03165)", "experiment": "tripartite Nanoluc system (luciferase complementation)", "details": "HepG2 cells; co-transfected with a plasmid expressing Nano1-7; luciferase activity measured 48 h post-transfection; parent: 100%"}, "[1]": {"target": "C10-STAU1 with the RBD2 domain deleted (UniProt O95793)", "experiment": "split reporter (BiFC, NanoBiT); tripartite Nanoluc luciferase: C10-tagged and N8-tagged proteins co-transfected with a plasmid expressing Nano1-7 into HepG2 cells; luciferase activity measured 48 h post-transfection"}, "C10-DDB1": {"target": "C10-DDB1 (UniProt Q16531)", "sequence (Q16531 whole entry)": "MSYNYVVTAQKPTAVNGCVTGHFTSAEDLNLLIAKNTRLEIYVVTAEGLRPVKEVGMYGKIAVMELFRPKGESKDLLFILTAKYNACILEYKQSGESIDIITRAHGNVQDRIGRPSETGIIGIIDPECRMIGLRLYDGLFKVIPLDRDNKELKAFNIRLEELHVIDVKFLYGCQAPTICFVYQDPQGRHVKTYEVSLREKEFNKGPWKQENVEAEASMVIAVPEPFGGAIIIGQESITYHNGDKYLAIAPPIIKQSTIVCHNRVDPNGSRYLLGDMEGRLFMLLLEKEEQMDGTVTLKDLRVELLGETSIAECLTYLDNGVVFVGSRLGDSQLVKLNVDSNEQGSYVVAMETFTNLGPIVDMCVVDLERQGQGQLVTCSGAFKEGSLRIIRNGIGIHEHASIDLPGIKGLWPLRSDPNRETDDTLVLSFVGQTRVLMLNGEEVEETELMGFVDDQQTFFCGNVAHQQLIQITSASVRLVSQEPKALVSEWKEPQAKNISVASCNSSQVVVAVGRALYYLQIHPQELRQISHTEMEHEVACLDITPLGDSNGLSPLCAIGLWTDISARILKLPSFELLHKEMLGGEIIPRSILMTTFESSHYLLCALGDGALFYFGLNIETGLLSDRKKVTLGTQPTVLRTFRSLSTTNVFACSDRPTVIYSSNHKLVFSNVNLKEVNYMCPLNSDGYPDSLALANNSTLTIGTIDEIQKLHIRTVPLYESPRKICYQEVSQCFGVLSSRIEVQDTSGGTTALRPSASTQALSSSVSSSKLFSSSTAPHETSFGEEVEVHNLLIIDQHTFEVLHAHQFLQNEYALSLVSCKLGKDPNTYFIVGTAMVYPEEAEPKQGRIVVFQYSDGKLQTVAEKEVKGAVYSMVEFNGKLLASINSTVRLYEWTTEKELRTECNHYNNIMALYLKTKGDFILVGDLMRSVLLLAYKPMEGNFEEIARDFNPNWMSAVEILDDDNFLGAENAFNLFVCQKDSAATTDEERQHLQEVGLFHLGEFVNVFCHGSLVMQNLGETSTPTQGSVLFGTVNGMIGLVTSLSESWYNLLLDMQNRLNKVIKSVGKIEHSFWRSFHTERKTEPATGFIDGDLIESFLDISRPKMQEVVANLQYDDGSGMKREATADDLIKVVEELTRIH", "experiment": "tripartite Nanoluc system (luciferase complementation)", "details": "HepG2 cells; co-transfected with a plasmid expressing Nano1-7; luciferase activity measured 48 h post-transfection; parent: 100%"}, "C10-DDB1M381/2": {"target": "C10-DDB1M381/2", "experiment": "tripartite Nanoluc system (luciferase complementation)", "details": "HepG2 cells; co-transfected with a plasmid expressing Nano1-7; luciferase activity measured 48 h post-transfection; parent: 100%"}}, "data": [{"substance": "C10-DDB1 (from UniProt Q16531) M381/2", "values": [{"measurement": "percent of parent", "setting": "N8-HBx", "value": 0.68, "unit": "%"}]}, {"substance": "N8-HBx (from UniProt P03165 1-154) (natural protein)", "values": [{"measurement": "fold luminescence against wild type STAU1", "setting": "[1]", "value": 2, "unit": "fold"}]}, {"substance": "N8-HBx (from UniProt P03165) 96E", "values": [{"measurement": "percent of parent", "setting": "C10-DDB1", "value": 0.25, "unit": "%"}]}, {"substance": "m3; m4 HBx:96E; DDB1:M381/2", "values": [{"measurement": "percent of parent", "setting": "C10-DDB1M381/2", "value": 0.2, "unit": "%"}]}]}
